Source: patent US20100135997A1 (MEDGENE, published 2010)

Target: T1, HLA-A*0201 loaded with the Carcinoembryonic antigen (CEA)-derived … peptide (biotin on the C-terminal biotinylation tag)
T1 construct: Soluble, biotinylated, immobilised on a streptavidin chip
Experiment: Biacore SPR
Procedure: SPR measures changes in refractive index expressed in response units (RU) near a sensor surface within a small flow cell, a principle that can be used to detect receptor ligand interactions and to analyse their affinity and kinetic parameters. The probe flow cells were prepared by immobilising the pMHC complexes in flow cells via biotin-tag binding. The assay was then performed by passing soluble ILT-like molecule over the surfaces of the different flow cells at a constant flow rate, measuring the SPR response in doing so.

Binder | Kd [µM] | koff [s⁻¹]
SEQ ID NO 95 (receptor, mutated soluble two domain ILT-2) MGHLPKPTLWAEPGSVITQGSPVTLRCQGGQETQEYRLYREKKTAPWITRIPQELVKKGQFPIPSITWEHAGRYRCQGVSQTAGRSESSDPLELVVTGVYIKPTLSAQPSPVVNSGGNVTLQCDSQVAFDGFILCKEGEDEHPQCLNSQPHARGSSRAIFSVGPVSPSRRWWYRCYAYDSNSPYEWSLPSDLLELLVL | ≤ 1 | ≤ 2
SEQ ID NO 96 (receptor, mutated soluble two domain ILT-2) MGHLPKPTLWAEPGSVITQGSPVTLRCQGGQETQEYRLYREKKTAPQITRIPQELVKKGQFPIPSITWEHAGRYRCYYGSDTAGRSESSDPLELVVTGVYVAPTLSAQPSPVVNSGGNVTLQCDSQVAFDGFILCKEGEDEHPQCLNSQPHARGSSRAIFSVGPVSPGRRWWYRCYAYDSNSPYEWSLPSDLLELLVL | ≤ 1 | ≤ 2
SEQ ID NO 97 (receptor, mutated soluble two domain ILT-2) MGHLPKPTLWAEPGSVITQGSPVTLRCQGGQETQEYRLYREKKTAPWITRIPQELVKKGQFPIPSITWEHAGRYRCYYGSDTAGRSESSDPLELVVTGIYKAPTLSAQPSPVVNSGGNVTLQCDSQVAFDGFILCKEGEDEHPQCLNSQPHARGSSRAIFSVGPVSPGRRWWYRCYAYDSNSPYEWSLPSDLLELLVL | ≤ 1 | ≤ 2
SEQ ID NO 98 (receptor, mutated soluble two domain ILT-2) MGHLPKPTLWAEPGSVITQGSPVTLRCQGGQETQEYRLYREKKTAPWITRIPQELVKKGQFPIPSITWEHAGRYRCYYGSDTAGRSESSDPLELVVTGIYQRPTLSAQPSPVVNSGGNVTLQCDSQVAFDGFILCKEGEDEHPQCLNSQPHARGSSRAIFSVGPVSPGRRWWYRCYAYDSNSPYEWSLPSDLLELLVL | ≤ 1 | ≤ 2
SEQ ID NO 99 (receptor, mutated soluble two domain ILT-2) MGHLPKPTLWAEPGSVITQGSPVTLRCQGGQETQEYRLYREKKTAPWITRIPQELVKKGQFPIPSITWEHAGRYRCYYGSDTAGRSESSDPLELVVTGIYQAPTLSAQPSPVVNSGGNVTLQCDSQVAFDGFILCKEGEDEHPQCLNSQPHARGSSRAIFSVGPVSPGRRWWYRCYAYDSNSPYEWSLPSDLLELLVL | ≤ 1 | ≤ 2
SEQ ID NO 100 (receptor, mutated soluble two domain ILT-2) MGHLPKPTLWAEPGSVITQGSPVTLRCQGGQETQEYRLYREKKTAPWITRIPQELVKKGQFPIPSITWEHAGRYRCYYGSDTAGRSESSDPLELVVTGIYLQPTLSAQPSPVVNSGGNVTLQCDSQVAFDGFILCKEGEDEHPQCLNSQPHARGSSRAIFSVGPVSPGRRWWYRCYAYDSNSPYEWSLPSDLLELLVL | ≤ 1 | ≤ 2
SEQ ID NO 101 (receptor, mutated soluble two domain ILT-2) MGHLPKPTLWAEPGSVITQGSPVTLRCQGGQETQEYRLYREKKTAPWITRIPQELVKKGQFPIPSITWEHAGRYRCYYGSDTAGRSESSDPLELVVTGIYKQPTLSAQPSPVVNSGGNVTLQCDSQVAFDGFILCKEGEDEHPQCLNSQPHARGSSRAIFSVGPVSPGRRWWYRCYAYDSNSPYEWSLPSDLLELLVL | ≤ 1 | ≤ 2
SEQ ID NO 102 (receptor, mutated soluble two domain ILT-2) MGHLPKPTLWAEPGSVITQGSPVTLRCQGGQETQEYRLYREKKTAPWITRIPQELVKKGQFPIPSITWEHAGRYRCYYGSDTAGRSESSDPLELVVTGIYQKPTLSAQPSPVVNSGGNVTLQCDSQVAFDGFILCKEGEDEHPQCLNSQPHARGSSRAIFSVGPVSPSRRWWYRCYAYDSNSPYEWSLPSDLLELLVL | ≤ 1 | ≤ 2
SEQ ID NO 103 (receptor, mutated soluble two domain ILT-2) MGHLPKPTLWAEPGSVITMDQPVTLRCQGGQETQEYRLYREKKTAPWITRIPQELVKKGQFPIPSITWEHAGRYRCYYGSDTAGRSESSDPLELVVTGIYLAPTLSAQPSPVVNSGGNVTLQCDSQVAFDGFILCKEGEDEHPQCLNSQPHARGSSRAIFSVGPVSPSRRWWYRCYAYDSNSPYEWSLPSDLLELLVL | ≤ 1 | ≤ 2
